Here are results for eleven molecules from patent US20140294898A1 (published 2014).

Sequences and labels used below:
B1: Compound No. 72 (peptide)
peptide: AFXGDVFYGWYLCG
HELM: PEPTIDE1{[O=C(C[*:3])[*:2]].A.[meF].[CCCC[C@@H](C(=O)[*:2])N(C)[*:1]].[Sar].D.V.[meF].Y.[Sar].W.Y.L.C.G.[am]}$PEPTIDE1,PEPTIDE1,1:R3-14:R3$$$V2.0
SMILES: CCCC[C@H]1C(=O)N(C)CC(=O)N[C@@H](CC(=O)O)C(=O)N[C@@H](C(C)C)C(=O)N(C)[C@@H](Cc2ccccc2)C(=O)N[C@@H](Cc2ccc(O)cc2)C(=O)N(C)CC(=O)N[C@@H](Cc2c[nH]c3ccccc23)C(=O)N[C@@H](Cc2ccc(O)cc2)C(=O)N[C@@H](CC(C)C)C(=O)N[C@H](C(=O)NCC(N)=O)CSCC(=O)N[C@@H](C)C(=O)N(C)[C@@H](Cc2ccccc2)C(=O)N1C
notes: macrocyclic peptide cyclized via the ClAc moiety with the downstream cysteine; variant of Compound No. 71 (Ala at 1)
B2: Compound No. 83 (peptide)
peptide: FFXGDVFAGWYLCG
HELM: PEPTIDE1{[O=C(C[*:3])[*:2]].F.[meF].[CCCC[C@@H](C(=O)[*:2])N(C)[*:1]].[Sar].D.V.[meF].A.[Sar].W.Y.L.C.G.[am]}$PEPTIDE1,PEPTIDE1,1:R3-14:R3$$$V2.0
SMILES: CCCC[C@H]1C(=O)N(C)CC(=O)N[C@@H](CC(=O)O)C(=O)N[C@@H](C(C)C)C(=O)N(C)[C@@H](Cc2ccccc2)C(=O)N[C@@H](C)C(=O)N(C)CC(=O)N[C@@H](Cc2c[nH]c3ccccc23)C(=O)N[C@@H](Cc2ccc(O)cc2)C(=O)N[C@@H](CC(C)C)C(=O)N[C@H](C(=O)NCC(N)=O)CSCC(=O)N[C@@H](Cc2ccccc2)C(=O)N(C)[C@@H](Cc2ccccc2)C(=O)N1C
notes: macrocyclic peptide cyclized via the ClAc moiety with the downstream cysteine; variant of Compound No. 71 (Ala at 8)
B3: Compound No. 84 (peptide)
peptide: FFXGDVFYAWYLCG
HELM: PEPTIDE1{[O=C(C[*:3])[*:2]].F.[meF].[CCCC[C@@H](C(=O)[*:2])N(C)[*:1]].[Sar].D.V.[meF].Y.[meA].W.Y.L.C.G.[am]}$PEPTIDE1,PEPTIDE1,1:R3-14:R3$$$V2.0
SMILES: CCCC[C@H]1C(=O)N(C)CC(=O)N[C@@H](CC(=O)O)C(=O)N[C@@H](C(C)C)C(=O)N(C)[C@@H](Cc2ccccc2)C(=O)N[C@@H](Cc2ccc(O)cc2)C(=O)N(C)[C@@H](C)C(=O)N[C@@H](Cc2c[nH]c3ccccc23)C(=O)N[C@@H](Cc2ccc(O)cc2)C(=O)N[C@@H](CC(C)C)C(=O)N[C@H](C(=O)NCC(N)=O)CSCC(=O)N[C@@H](Cc2ccccc2)C(=O)N(C)[C@@H](Cc2ccccc2)C(=O)N1C
notes: macrocyclic peptide cyclized via the ClAc moiety with the downstream cysteine; variant of Compound No. 71 (mAla at 9)
B4: Compound No. 77 (peptide)
peptide: FFXADVFYGWYLCG
HELM: PEPTIDE1{[O=C(C[*:3])[*:2]].F.[meF].[CCCC[C@@H](C(=O)[*:2])N(C)[*:1]].[meA].D.V.[meF].Y.[Sar].W.Y.L.C.G.[am]}$PEPTIDE1,PEPTIDE1,1:R3-14:R3$$$V2.0
SMILES: CCCC[C@H]1C(=O)N(C)[C@@H](C)C(=O)N[C@@H](CC(=O)O)C(=O)N[C@@H](C(C)C)C(=O)N(C)[C@@H](Cc2ccccc2)C(=O)N[C@@H](Cc2ccc(O)cc2)C(=O)N(C)CC(=O)N[C@@H](Cc2c[nH]c3ccccc23)C(=O)N[C@@H](Cc2ccc(O)cc2)C(=O)N[C@@H](CC(C)C)C(=O)N[C@H](C(=O)NCC(N)=O)CSCC(=O)N[C@@H](Cc2ccccc2)C(=O)N(C)[C@@H](Cc2ccccc2)C(=O)N1C
notes: macrocyclic peptide cyclized via the ClAc moiety with the downstream cysteine; variant of Compound No. 71 (mAla at 4)
B5: Compound No. 87 (peptide)
peptide: FFXGDVFYGWYACG
HELM: PEPTIDE1{[O=C(C[*:3])[*:2]].F.[meF].[CCCC[C@@H](C(=O)[*:2])N(C)[*:1]].[Sar].D.V.[meF].Y.[Sar].W.Y.A.C.G.[am]}$PEPTIDE1,PEPTIDE1,1:R3-14:R3$$$V2.0
SMILES: CCCC[C@H]1C(=O)N(C)CC(=O)N[C@@H](CC(=O)O)C(=O)N[C@@H](C(C)C)C(=O)N(C)[C@@H](Cc2ccccc2)C(=O)N[C@@H](Cc2ccc(O)cc2)C(=O)N(C)CC(=O)N[C@@H](Cc2c[nH]c3ccccc23)C(=O)N[C@@H](Cc2ccc(O)cc2)C(=O)N[C@@H](C)C(=O)N[C@H](C(=O)NCC(N)=O)CSCC(=O)N[C@@H](Cc2ccccc2)C(=O)N(C)[C@@H](Cc2ccccc2)C(=O)N1C
notes: macrocyclic peptide cyclized via the ClAc moiety with the downstream cysteine; variant of Compound No. 71 (Ala at 12)
B6: Compound No. 80 (peptide)
peptide: FFXGDAFYGWYLCG
HELM: PEPTIDE1{[O=C(C[*:3])[*:2]].F.[meF].[CCCC[C@@H](C(=O)[*:2])N(C)[*:1]].[Sar].D.A.[meF].Y.[Sar].W.Y.L.C.G.[am]}$PEPTIDE1,PEPTIDE1,1:R3-14:R3$$$V2.0
SMILES: CCCC[C@H]1C(=O)N(C)CC(=O)N[C@@H](CC(=O)O)C(=O)N[C@@H](C)C(=O)N(C)[C@@H](Cc2ccccc2)C(=O)N[C@@H](Cc2ccc(O)cc2)C(=O)N(C)CC(=O)N[C@@H](Cc2c[nH]c3ccccc23)C(=O)N[C@@H](Cc2ccc(O)cc2)C(=O)N[C@@H](CC(C)C)C(=O)N[C@H](C(=O)NCC(N)=O)CSCC(=O)N[C@@H](Cc2ccccc2)C(=O)N(C)[C@@H](Cc2ccccc2)C(=O)N1C
notes: macrocyclic peptide cyclized via the ClAc moiety with the downstream cysteine; variant of Compound No. 71 (Ala at 6)
B7: Compound No. 86 (peptide)
peptide: FFXGDVFYGWALCG
HELM: PEPTIDE1{[O=C(C[*:3])[*:2]].F.[meF].[CCCC[C@@H](C(=O)[*:2])N(C)[*:1]].[Sar].D.V.[meF].Y.[Sar].W.A.L.C.G.[am]}$PEPTIDE1,PEPTIDE1,1:R3-14:R3$$$V2.0
SMILES: CCCC[C@H]1C(=O)N(C)CC(=O)N[C@@H](CC(=O)O)C(=O)N[C@@H](C(C)C)C(=O)N(C)[C@@H](Cc2ccccc2)C(=O)N[C@@H](Cc2ccc(O)cc2)C(=O)N(C)CC(=O)N[C@@H](Cc2c[nH]c3ccccc23)C(=O)N[C@@H](C)C(=O)N[C@@H](CC(C)C)C(=O)N[C@H](C(=O)NCC(N)=O)CSCC(=O)N[C@@H](Cc2ccccc2)C(=O)N(C)[C@@H](Cc2ccccc2)C(=O)N1C
notes: macrocyclic peptide cyclized via the ClAc moiety with the downstream cysteine; variant of Compound No. 71 (Ala at 11)
B8: Compound No. 85 (peptide)
peptide: FFXGDVFYGWYLCG
HELM: PEPTIDE1{[O=C(C[*:3])[*:2]].F.[meF].[CCCC[C@@H](C(=O)[*:2])N(C)[*:1]].[Sar].D.V.[meF].Y.G.W.Y.L.C.G.[am]}$PEPTIDE1,PEPTIDE1,1:R3-14:R3$$$V2.0
SMILES: CCCC[C@H]1C(=O)N(C)CC(=O)N[C@@H](CC(=O)O)C(=O)N[C@@H](C(C)C)C(=O)N(C)[C@@H](Cc2ccccc2)C(=O)N[C@@H](Cc2ccc(O)cc2)C(=O)NCC(=O)N[C@@H](Cc2c[nH]c3ccccc23)C(=O)N[C@@H](Cc2ccc(O)cc2)C(=O)N[C@@H](CC(C)C)C(=O)N[C@H](C(=O)NCC(N)=O)CSCC(=O)N[C@@H](Cc2ccccc2)C(=O)N(C)[C@@H](Cc2ccccc2)C(=O)N1C
notes: macrocyclic peptide cyclized via the ClAc moiety with the downstream cysteine; variant of Compound No. 71 (Gly instead of Sar at 9)
B9: Compound No. 71 (peptide)
peptide: FFXGDVFYGWYLCG
HELM: PEPTIDE1{[O=C(C[*:3])[*:2]].F.[meF].[CCCC[C@@H](C(=O)[*:2])N(C)[*:1]].[Sar].D.V.[meF].Y.[Sar].W.Y.L.C.G.[am]}$PEPTIDE1,PEPTIDE1,1:R3-14:R3$$$V2.0
SMILES: CCCC[C@H]1C(=O)N(C)CC(=O)N[C@@H](CC(=O)O)C(=O)N[C@@H](C(C)C)C(=O)N(C)[C@@H](Cc2ccccc2)C(=O)N[C@@H](Cc2ccc(O)cc2)C(=O)N(C)CC(=O)N[C@@H](Cc2c[nH]c3ccccc23)C(=O)N[C@@H](Cc2ccc(O)cc2)C(=O)N[C@@H](CC(C)C)C(=O)N[C@H](C(=O)NCC(N)=O)CSCC(=O)N[C@@H](Cc2ccccc2)C(=O)N(C)[C@@H](Cc2ccccc2)C(=O)N1C
notes: Macrocyclic peptide of the Formula II series; X = norleucine backbone (N-methylated)
B10: Compound No. 80 (peptide)
peptide: FFXGDAFYGWYLCG
HELM: PEPTIDE1{[O=C(C[*:3])[*:2]].F.[meF].[CCCC[C@@H](C(=O)[*:2])N(C)[*:1]].[Sar].D.A.[meF].Y.[Sar].W.Y.L.C.G.[am]}$PEPTIDE1,PEPTIDE1,1:R3-14:R3$$$V2.0
SMILES: CCCC[C@H]1C(=O)N(C)CC(=O)N[C@@H](CC(=O)O)C(=O)N[C@@H](C)C(=O)N(C)[C@@H](Cc2ccccc2)C(=O)N[C@@H](Cc2ccc(O)cc2)C(=O)N(C)CC(=O)N[C@@H](Cc2c[nH]c3ccccc23)C(=O)N[C@@H](Cc2ccc(O)cc2)C(=O)N[C@@H](CC(C)C)C(=O)N[C@H](C(=O)NCC(N)=O)CSCC(=O)N[C@@H](Cc2ccccc2)C(=O)N(C)[C@@H](Cc2ccccc2)C(=O)N1C
notes: Variant of Compound No. 71: Val6 to Ala
B11: Compound No. 83 (peptide)
peptide: FFXGDVFAGWYLCG
HELM: PEPTIDE1{[O=C(C[*:3])[*:2]].F.[meF].[CCCC[C@@H](C(=O)[*:2])N(C)[*:1]].[Sar].D.V.[meF].A.[Sar].W.Y.L.C.G.[am]}$PEPTIDE1,PEPTIDE1,1:R3-14:R3$$$V2.0
SMILES: CCCC[C@H]1C(=O)N(C)CC(=O)N[C@@H](CC(=O)O)C(=O)N[C@@H](C(C)C)C(=O)N(C)[C@@H](Cc2ccccc2)C(=O)N[C@@H](C)C(=O)N(C)CC(=O)N[C@@H](Cc2c[nH]c3ccccc23)C(=O)N[C@@H](Cc2ccc(O)cc2)C(=O)N[C@@H](CC(C)C)C(=O)N[C@H](C(=O)NCC(N)=O)CSCC(=O)N[C@@H](Cc2ccccc2)C(=O)N(C)[C@@H](Cc2ccccc2)C(=O)N1C
notes: Variant of Compound No. 71: Tyr8 to Ala

The target in one assay is T1, hPDL1(19-239)-TVMV-His (human, UniProt Q9NZQ7 19-239).
T1 construct: The construct name says 19-239, the running text says amino acids 18-239; Expressed in HEK293T cells; also called PD-L1-His; PD-L1-TVMV-His
T1 sequence (Q9NZQ7 other isoform, or with tags, fused parts or gaps limits assumed): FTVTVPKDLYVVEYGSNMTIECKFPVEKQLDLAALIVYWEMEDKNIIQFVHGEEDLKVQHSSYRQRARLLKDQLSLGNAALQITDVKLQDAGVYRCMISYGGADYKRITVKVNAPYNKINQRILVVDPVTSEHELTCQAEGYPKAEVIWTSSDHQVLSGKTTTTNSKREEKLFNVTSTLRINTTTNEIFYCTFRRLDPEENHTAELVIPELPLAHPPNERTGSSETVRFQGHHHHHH
As to the kind of experiment: HTRF competition, PD-1-Ig (20 nM) binding to human PD-L1-His (10 nM). The method, then: All binding studies were performed in an HTRF assay buffer consisting of dPBS supplemented with 0.1% (w/v) bovine serum albumin and 0.05% (v/v) Tween-20. […] PD-L1 fusion proteins from either human, cynomologous macaques, or mouse were used. HTRF detection was achieved using europium crypate-labeled anti-Ig monoclonal antibody (1 nM final) and allophycocyanin (APC) labeled anti-His monoclonal antibody (20 nM final). Antibodies were diluted in HTRF detection buffer and 5 μl was dispensed on top of binding reaction. The reaction was allowed to equilibrate for 30 minutes and signal (665 nm/620 nm ratio) was obtained using an EnVision fluorometer. […]
HTRF experiments were performed essentially as outlined supra. Variant macrocyclic peptides were created as outlined herein.
The term IC50 denotes the midpoint of a concentration-inhibition curve. Read a low IC50 as higher potency. In the case of B1, the IC50 amounted to 4230 nM.
B2: the IC50 came out at 35 nM.
B3 had an IC50 of 42 nM.
In turn, B4 came in with an IC50 of 24 nM.
On to B5, for which the IC50 was found to be 25 nM.
Same read-out and setting: to B6 belongs 264 nM; to B7, 820 nM.
Regarding B8, the IC50 is 191 nM.

In a further assay the target is T2, human PD-L1 (human, UniProt Q9NZQ7 19-239, limits assumed).
T2 construct: also called Hu PD-L1; hPD-L1
T2 sequence (Q9NZQ7 19-239 limits assumed): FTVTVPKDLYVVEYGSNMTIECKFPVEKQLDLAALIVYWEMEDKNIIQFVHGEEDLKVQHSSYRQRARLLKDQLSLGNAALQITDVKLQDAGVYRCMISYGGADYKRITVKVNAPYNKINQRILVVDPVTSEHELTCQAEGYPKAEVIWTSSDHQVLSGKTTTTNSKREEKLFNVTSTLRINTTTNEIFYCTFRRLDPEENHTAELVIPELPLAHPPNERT
As to the kind of experiment: cell binding assay, inhibition of human PD-L1/PD-1 binding (cell format not given).
Turning to B9, the IC50 amounted to 10 nM.
In the case of B10, the IC50 is 723 nM.
With B11, the 50% inhibitory concentration (IC50) came out at 75 nM.
